This data set in a line: soluble on expression in E. coli; label from the status in PepcDB or PDB records.
For “MAHHHHHHMYLGSIKNFEDDFLCKGEYKQVYLSLEQNENNEAIEIDICCDNNIYDILQFCREKYGIYGEYIIDSCGNVIHSIKDIIDGDTLYLKEKKEDMNFFSKIKNNFIVNDYIVEKRIGSGGFGIVFQGVHIQTKQKVALKFIPKSNFLDVTDVHRVFIEIQTLRGLIHNNIIKMYDVNHFQNYVCLIMEYAINGDLKNYIKNKFNGFLSEKEAHDLFLQIVKGVYYCHSKHIVHRDLKLENILLDEKMTCKIADFGLSDFVNVDQNIKTEAGTKAYIAPEIIFNQTINYSVFKLDIWSLGILLFIMTQGFAPFKYMEKELKNFESNTLNYANDISDDLKDLISLMLNVDPNKRPIIVEILNHRWFENYKES”, the “soluble on expression in E. coli” value was “soluble”.

Turning to “MAHHHHHHMYLLQCEKKKKQKGKGQIGLTQVEYIGKPLIGGDFTLINHDGKVVTNEDFKKKFCLIYFGFTYCPDICPQELEKQTIVIERIVKKYGDVITPVFISVDPNRDTLAQVKHYCSSFSDRLVGLTGTKEQIRRVAKLFRVYYNEHVVGEEQTEEQTEKQKERQTDTQTEAQSGDPPRAPSYNYLIDHSIIHYLLDADGKFVDFFGKNCTTSEMVERISHYVDLHLQ”, the “soluble on expression in E. coli” value is on record as “not soluble”. For the sequence “MAHHHHHHMYVVGPMVDQSELPFRMLCRRYGATLAYSPMLHARSFAQSAQYRARYFSTTPHRAEPAMTATVSGEGEAAEDAGRTSDGKETDHPLFVQFCGNDADTLLAAARHVEDDCEAVDVNLGCPQGIARRGHYGSFLMEDWDRVHNILHCLAVELRVPVTAKMRVFDDDALTLKYAEMLRDTGIAVLCVHGRTRHNKRGLADMEKIRRVREHLRGSIPVIGNGNVLTFEDVRRNMSVTMTDGYMCAEPLLWDPRLFAAPLHPVRNGRCFAECCEARLDAIRTAQEYLQLVQRYPVDLAFVKAHLFKMLFHSYEMHPVMHGWLTNFSCNGRGGNNNNNAGSDVNGEVEDGDIDDGRSPDGASESGSGNANKAESNVKQAAGNLDFFAFAMDALGEHLRQLYAAEVSCGVEGPQPKRAHEREKGVNDDTSSSAKRKVETSHDAFAEDDVFGIDFDLNKK”, the “soluble on expression in E. coli” value is “soluble”. In the case of “MAHHHHHHSLENKGTNLTPEQALDRLEELYEQSVNALREAIADYVDNGTLPDPHARLNGLFVYPSLSVSWDGATPNPPKTRAFGRFTHPGCYTTTVTRPALFRAYLLEQLNLVYHDYGAHIAVEASHHEIPYPYVIDGSALTLDRSMSAGLTRHFPTTELAQIGDETADGLFHPGEFYPLSHFDARRVDFSLARLRHYTGTPVEHFQPFVLFTNYTRYVDEFVRWGCSQILDPDSPYIALSCAGGIWITAETEAPEEAISDLAWKKHQMPAWHLVTADGQGITLVNIGVGPSNAKTICDHLAVLRPDVWLMIGHCGGLRESQAIGDYVLAHAYLRDDHVLDAVLPPDIPIPSIAEVQRALYDATKAVSGMPGEEVKQRLRTGTVVTTDDRNWELRYSASALRFNLSRAVAIDMESATIAAQGYRFRVPYGTLLCVSDKPLHGEIKLPGQANRFYEGAISEHLQIGIRAIDLLRAEGDRLHSRKEG”, the “soluble on expression in E. coli” value was “soluble”. “MAHHHHHHSLIDCRYYQQNECRSCQWLEIPCSQQLTEKQYHLKQQLISINYDEAQWVAPFQSNQQGFRNKAKMVVSGSVERPILGILKNPNDPQSAIDLCDCPLYPTHFSAIFSILKDFIGRAGLVPYNIAKQKGELKYILLTESIATEKLMLRFVLRTENKLPLIRRELPKLLEKLPHLEVISINLQPQHAAILEGEQEIFLTEQQFLPENFNGIPLFIRPRGFFQTNPKVAAGLYATAQQWVAEFPIYNLWDLFCGVGGFGLHCAKALQEKWGKPIKLTGIEISSSAILAASHSAKILGLEHVNFQSLDAASVIENKNENKPDLVIVNPPRRGIGKELSEFLNQIQPHFILYSSCNAMTMGKDLQHLTCYKPLKIQLFDMFPQTSHYEVLVLLEREG”: the “soluble on expression in E. coli” value was “not soluble”. For the sequence “MAHHHHHHSLMLKKNDIIQVAISDLSHEGAGVAKHDGFVFFVDNALPEEVIDMRVLKVNKNSGFGKVEAYHYLSSARNADVNLTYLRTGIADLGHLTYEDQLTFKKKQVQDSLYKIAGISDVTVESTIGMTEPLAYRNKAQVPVRRVNGQLETGFFRKHSHDLIPISDYYIQDKEIDRLINFTRDLLRRFDIKPYDETEQTGLLRNIVVRRGHYSGEMMLVLVTTRPKVFRVDQVIEKIVEAFPAVVSIIQNINDKNTNAIFGKDFKTLYGKDTITDSMLGNNYAISAQSFYQVNTVMAEKLYQTAIAFSDLSKDDIVIDAYSGIGTIGLSFAKTVKAVYGVEVIEAAVRDAQQNAALNGITNAYFVADTAEHAMATWAKDGIKPSVILVDPPRKGLTESFIQASVAMGPQKITYVSCNPATMARDIKRYQELGYKLAKVQPVDLFPQTHHVECVVLLIKEEG”, the “soluble on expression in E. coli” value is “not soluble”.

Regarding “MAHHHHHHSLNDELKNKSGKVKVMYVRSDDDSDKRTHNPRTGKGGGRPAKSRTDGGRRPARDERNNQSRDRKHETSPWRTVSRAPGDETPEKVDHGGISGKSFIDPEVLRRQRAEETRVYGENACQALFQSRPDAIVRAWFIQSVTPRFKEALRWMAANRKAYHVVDEAELAKASGTEHHGGVCFLIKKRNGTTVKQWVKQAADQDCVLALEDVANPHNLGGMMRSCAHFGVKGVVVQDAALLESGAAIRTAEGGAEHVQPITGESIVDVLDDFRQAGYTVVTTSSDRGQALFSTTLPEKMVLVLGREYDYLPEAAREPDDLCVKINGTGNVESLNVSVATGVLLAEWWRQNKAEG”, the “soluble on expression in E. coli” value was “soluble”. Take “MAHHHHHHSLQTGIPALPPIAQPLPVPAPAPVTPPAPTVPVPQEPAPVPQPPMPQPSVPQTPAPQKPVTPRPAPAPSRAPLLIQARANVPALVAGKKTTVPVLKTLTIPAERAAQLRQRGEVSASLQADLDTFLKSLAAPRDARFEQQDDGQWAVVQPNGLKVDAQATRAAVAKVLRDPRGVSANVVVTGQVAPQRTLDFFASRGITTFLATGFTSYYGSSPERVKNIHVGAQNFKDRLFEGDVFSFNKFIGPVSERNGYVPGLVIAGDQTASGVGGGICQVSTTVFRTLYGAGLGIVQRQNHSYQVFYYDPQGLDATIYQPQLDLKFANTTGGPIWFQTEWDDQEATLTITAFGQARDYQVQVDAPKTLKTVAPPKDRLIPDASLPAGQRKQVDWAAPGATIEVTRRFTRGGKTFKQDTLRSVYRPWPNIFRVGTKKEG”: the “soluble on expression in E. coli” value is on record as “not soluble”.

For “MAIHVEHVGVLERAREVSRLEDIITEDNEDIEAEMPKMRDDPAGKEARFLQATDEMSAALTQFMKKKIYEEQLANFLDGEEYVLEDQPIEKTDKVMEALKAATTHDYEVYSFAKKLFPDESDLVVVLRAILRKKQISENVRLNAEALLRKVNQETTKKFINSGINSALKAKLFGQALSLNPKLLRASYRQFLMAEDDAVDTYVEWIGSYGYQNRMLVTKFIKETLFSDINALDASCSSLEFGMFLNKLSQLLSLQSAEALFLKTLMNNPIIKKFISAEDYWIFFLISLIKFPETAEELLNNALVTLPADANYKDKTLLLKAIYSGCTNLPFSLFINNEQLLEIRECCKQAIKVTFAAELFDTQNCNKKQNKKPWKKVMFNV”, the “soluble on expression in E. coli” value is listed as “not soluble”. For the sequence “MAIQHPDIQPAVNHSVQVAIAGAGPVGLMMANYLGQMGIDVLVVEKLDKLIDYPRAIGIDDEALRTMQSVGLVDDVLPHTTPWHAMRFLTPKGRCFADIQPMTDEFGWPRRNAFIQPQVDAVMLEGVSRFPNVRCLFSRELEAFSQQDDEVTLHLKTAEGQREIVKAQWLVACDGGASFVRRTLNVPFEGKTAPNQWIVVDIANDPLSTPHIYLCCDPVRPYVSAALPHAVRRFEFMVMPGETEEQLREPQNMRKLLSKVLPNPDNVELIRQRVYTHNARLAQRFRIDRVLLAGDAAHIMPVWQGQGYNSGMRDAFNLAWKLALVIQGKARDALLDTYQQERRDHAKAMIDLSVTAGNVLAPPKRWQGTLRDGVSWLLNYLPPVKRYFLEMRFKPMPQYYGGALMREGEAKHSPVGKMFIQPKVTLENGDVTLLDNAIGANFAVIGWGCNPLWGMSDEQIQQWRALGTRFIQVVPEVQIHTAQDNHDGVLRVGDTQGRLRSWFAQHNASLVVMRPDRFVAATAIPQTLGKTLNKLASVMTLTRPDADVSVEKVA”, the “soluble on expression in E. coli” value is on record as “soluble”. As to “MAISQFFEKIDRYYQKNLKEYEFSEEYSDISFNTFLYLRKINSLGNPTMSELAKAMEVSKPSASNMVSKMTEKGLVETGASPKDGRVCLLGLTDKGKKVIEIENGADMKFFEKIREILDEEELEVLERIFEKIAAGLEGEKHDR”, the “soluble on expression in E. coli” value is given as “not soluble”.

For the sequence “MAKDLLLEIGLEEMPAHVVTPSRIQLEEKVIKFLDEHHLDYETVQSFATPRRLAVKVTAIPEKQADVEEEVKGPAKKIALDAEGNWSKAAQGFVRGQGVTTEDIVFKELNGVEYVYVTKFTKGQSAKEVLTKLNDVITSLTFPVTMHWANYDFEYIRPIHWIVALLDDEVIPFKVLDVTTGQTSRGHRFLGDDVTFQHANEYEAKLKEQFVVVQPNERKQMIVDQANALAAEKNWQLALDEELLEEVTNLVEYPTAFVGSFDEKYLSVPDEVLVTSMKEHQRYFDVRNDQGLLMPHFIAVRNGDNVHLENVIKGNEKVLIARLEDAEFFYNEDKKLTIEACVEKLKNVTFHEKIGSIYEKMQRVALIAQIIGRKVGLSEDELEDLKRASEIYKFDLVTNMVGEFPELQGIMGEKYALLQGEKPAVATAIREHYLPTSSEGELPETAIGAVLALADKLDSVFSFFSVGMIPTGSNDPYALRRQTYGVIRIIEDKGWTFPLVQLQTEVDEAVNQDVEKYGVLLNEGQAEVVEFVKARLRQLLMTKNVRHDIIDAVVSAEQADLSKLFASANILKSRFEDQDFKPSMEALTRVINLAKKGQELLGDTEEGIDPSLFENKAEKELYQAVNDLSEAFATRTIAENYEALVNLRPLIDAYFNETMVMVEDEKVKQNRLKQLMQIAKMALSIASLDLLIVK”, the “soluble on expression in E. coli” value is listed as “not soluble”.

For “MAKIGFIGFGSMASLIATKIIETEVATPEEIILYSNSKNEHFNQFYTKYPTAELADNEAEIFTKADHSFVCKLPLAVLPLMKDCAAVLTPDRHVVSIAAGVSTSDIIEITPGLQVSKLIPSLTTAVNVGTTLIAHAETVNQTNTSWLETTFEHFGHVMTIREENMDIASDLTSSSPGIIAAIFEQFVEAALRRSSLSDAEVFQMINFALAGTSKLLVEEDYTFSGLIQRVATKDGTTAEGVELSKAQLPNFFDELLDRTQNKYASSEKEIQAQKRELLSLEHHHHHH”, the “soluble on expression in E. coli” value is given as “soluble”. For “MAKILVLYYSMYGHIETMAHAVAEGAKKVDGAEVIIKRVPETMPPEIFAKAGGKTQNAPVATPQELADYDAIIFGTPTRFGNMSGQMRTFLDQTGGLWASGSLYGKLGSVFSSTGTGGGQEQTITSTWTTLAHHGMVIVPIGYAAQELFDVSQVRGGTPYGATTIAGGDGSRQPSQEELSIARYQGEYVAGLAVKLNG” the value was “not soluble”; for “MAKKEIEPKTEQAKRLRLIRKSLQLHRDQIATRLGINKAIYDHAERGTTFPNVEFLTALSQQLKVNLNWFITGNGEMFTDMAKAKAAGFKPQAIPAGLMKRLGHLAYTTYRDAKITLPPEDVAELAAGLYGKLQELIYNINDMEEVEATLPLLKLHLKRQVEAEKAH”, “not soluble”; for “MAKNRFVRDVRLIASTSGDPIDAGQNGELLKSLYYQIAVHCIVLPPLRERKEDILPLAIHFIRQGNERYGLHVEGLGDDVQEAFLAYSWPGNVRELEAVILETMATMEQEQTITLAHLPAPFRAKLAPDETKTDFLFDTEDILPLDKYMEEVEIYYIRKALQHHGFNITKTAKALGLSRQNLQYRIRKYQIDKEWG”, “not soluble”.

The values are drawn from the DeepSol protein solubility set.
